Measurements as given in patent US20240415889A1 (published 2024).
Numbering of substitutions follows the chain as printed. Each block holds one binder with its values, some of them ahead of it.

Key:
[1] = target: T1, single chain CD94/NKG2A-Fc (CD94/NKG2A-IgG1 fusion polypeptide); test: competitive ELISA (HLA-E tetramer)
[2] = target: T1, single chain CD94/NKG2A-Fc …; test: ELISA; FIG. 27
[3] = target: T1, single chain CD94/NKG2A-Fc …; test: competitive ELISA (HLA-E tetramer); FIG. 26
[4] = target: T1, single chain CD94/NKG2A-Fc …; test: BLI

T1 sequence (chain, as listed by the source): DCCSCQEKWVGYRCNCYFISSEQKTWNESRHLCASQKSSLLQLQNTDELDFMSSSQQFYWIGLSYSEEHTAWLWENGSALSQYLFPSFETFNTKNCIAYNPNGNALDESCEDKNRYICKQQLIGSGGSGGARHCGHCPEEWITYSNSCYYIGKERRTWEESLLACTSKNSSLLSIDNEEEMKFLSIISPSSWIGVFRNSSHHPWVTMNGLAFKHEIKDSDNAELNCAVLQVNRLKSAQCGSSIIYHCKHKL

IC50 [1]: 1.4 nM
EC50 [2]: 0.64 nM
B1: IgG Clone #2 (1B2-6, IgG1-LALA-PG) (antibody, V domains shown)
VH: EVQLVESGGGLVKPGGSLRLSCAASGFTFSGYYMSWIRQAPGKGLEWLAYISNSGRTIYYADSVKGRFTISRDNSNSSLYLQMNSLRAEDTAVYYCARGFYMDAWGKGTTVTVSS
VL: DIQMTQSPSSLSASVGDRVTITCRASQSISSYLNWYQQKPGKAPKLLIYAASSLQSGVPSRFSGSGSGTDFTLTISSLQPEDFGVYYCQYYGISPPFTFGPGTKVDIKR

IC50 [1]: 9.6 nM
IC50 [3]: 20 nM
EC50 [2]: 1.6 nM
Kd [4]: 1.14 nM
B2: IgG Clone #1 (1B2, IgG1-LALA-PG) (antibody, V domains shown)
VH: B1 VH with E1Q, G31D, L48V, A49S, N53S, R56S, S75A, N76K, S77N
VL: B1 VL
